In general, Kd refers to the free concentration of one partner at which half of the binding sites on the other are occupied at equilibrium, for simple one-to-one binding. Read a low Kd as a tighter complex. As usually defined, the koff is a measure of how fast the partners let go of each other. One may read the kon as a measure of how fast the partners come together. Higher therefore signals faster complex formation.

Positions count from the first letter of the chain named.

The text below walks through data of patent publication US20250115676A1.

B1: chMAB-A (antibody, V domains shown)
VH: QVQLQQPGAELVKPGASVKLSCKASGYTFTSYWMHWVKQRPGQGLEWIGEIIPINGHTNYNEKFKSKATLTLDKSSSTAYMQLSSLASEDSAVYYCARGGYYYYGSRDYFDYWGQGTTLTVSS
VL: DIVLTQSPASLAVSLGQRATISCKASQSVDYDGDSYMNWYQQIPGQPPKLLIYAASDLESGIPARFSGSGSGTDFTLNIHPVEEEDAATYYCQQSHEDPFTFGGGTKLEIK
B2: hMAB-A (2.3) (antibody, V domains shown)
VH: EVQLVESGGGLVKPGGSLRLSCAASGFTFSSYWMHWVRQAPGKGLEWVGEIIPIFGHTNYNEKFKSRFTISLDNSKNTLYLQMGSLRAEDTAVYYCARGGYYYYGSRDYFDYWGQGTTVTVSS
VL: DIVMTQSPDSLAVSLGERATISCRASQSVDYSGDSYMNWYQQKPGQPPKLLIYAASDLESGIPARFSGSGSGTDFTLTISSLEPEDFATYYCQQSHEDPFTFGQGTKLEIK
B3: hMAB-A (2.2) (antibody, V domains shown)
VH: B2 VH
VL: B2 VL with R24K
B4: hMAB-A (4.4) (antibody, V domains shown)
VH: B2 VH with M34I, K63R, K65Q, S66G
VL: B2 VL with M37L, H96Y, E97S, D98T
B5: hMAB-A (1.1) (antibody, V domains shown)
VH: B2 VH with F55N
VL: B2 VL with R24K, S32D
B6: hMAB-A (3.3) (antibody, V domains shown)
VH: B2 VH with K63R, K65Q, S66G
VL: B2 VL
B7: hMAB-A (2D.2) (antibody, V domains shown)
VH: B2 VH with G105T, S106G, R107K, D108G, Y109V, F110L
VL: B2 VL with R24K
B8: hMAB-A (2I.2) (antibody, V domains shown)
VH: B2 VH with G105P, S106R, R107Q, D108G, Y109F, F110L
VL: B2 VL with R24K
B9: hMAB-A (2B.2) (antibody, V domains shown)
VH: B2 VH with G105I, S106G, R107K, D108G, Y109V, F110L
VL: B2 VL with R24K
B10: hMAB-A (2C.2) (antibody, V domains shown)
VH: B2 VH with G105P, S106R, R107F, D108G, Y109W, F110L
VL: B2 VL with R24K

The first assay deals with shADAM9-His (His-tagged soluble human ADAM9) (human) (UniProt Q13443). Kind of assay: BIACORE SPR; antibody captured on Fab2 goat anti-human Fc surface, shADAM9-His 6.25-100 nM as analyte; 1:1 Langmuir.
B1 gave a Kd of 3.6 nM.
The same measure, in the same setting: then B2, with 1.3 nM; and B3, with 1.4 nM; and B4, with 2 nM.
The molecule B5 returned a dissociation constant Kd of 3.5 nM.
On to B6, for which the Kd was 1.4 nM.

For another assay the target is unchanged. Briefly: binding affinity study (BIACORE, Table 7); reference not named. Background: In SPR one partner is held on a chip, and binding of the other changes the refractive index at the surface.
In turn, B2 displayed a fold increase in affinity of 2 fold.
As to B3, the fold increase in affinity came out at 2 fold.
On to B6, for which the fold increase in affinity is 2 fold.

A further assay has the same target. Briefly: BIACORE SPR; antibody captured, huADAM9-His as analyte.
For the molecule B3, the dissociation constant (Kd) stood at 0.6 nM, the koff is 0.00055 s⁻¹ and the association rate constant (kon) turned out to be 900000 M⁻¹ s⁻¹.
B7 showed an equilibrium dissociation constant (Kd) of 0.8 nM, a koff of 0.00058 s⁻¹ and a kon of 690000 M⁻¹ s⁻¹.
Consider B8, for which the Kd amounted to 0.4 nM, the off-rate constant (koff) came out at 0.00023 s⁻¹ and the association rate constant (kon) came out at 660000 M⁻¹ s⁻¹.
The molecule B9 came in with a Kd of 0.6 nM, an off-rate (koff) of 0.00039 s⁻¹ and a kon of 610000 M⁻¹ s⁻¹.
B10: the dissociation constant Kd came to 1.4 nM, the off-rate constant (koff) is 0.00081 s⁻¹ and the on-rate constant (kon) worked out at 590000 M⁻¹ s⁻¹.
